Source: patent US20240376151A1, “STAPLED PEPTIDES AND METHODS THEREOF” (FOG PHARMACEUTICALS, INC., priority 2022, published 2024)
Ends that are not written are not given here.

Biological target: T1, RNF31 PUB domain (Homo sapiens, UniProt Q96EP0)
T1 construct: MBP-TEV (N, cleaved yes); made in house; host or cells: E. coli BL21 (DE3) pLysS
T1 sequence (Q96EP0 1-179): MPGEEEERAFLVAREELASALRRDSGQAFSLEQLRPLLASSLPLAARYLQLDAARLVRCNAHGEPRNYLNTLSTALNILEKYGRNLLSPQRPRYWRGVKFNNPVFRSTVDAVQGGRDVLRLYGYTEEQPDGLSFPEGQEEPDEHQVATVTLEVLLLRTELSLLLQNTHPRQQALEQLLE
Test: Phage Library Screening with NGS, RNF31 PUB domain
Type: binding
Conditions: for Phage library screen NGS readout, Target Concentration 10 / Phage library screen NGS readout, Target Concentration 30 / Phage library screen NGS readout, Target Concentration 100 / Phage library screen NGS readout, Target Concentration 300 / Phage library screen NGS readout, Target Concentration 1000: RNF31 PUB domain clusters C41-C45; for Phage library screen NGS readout, BLANK: clusters C41-C45

[1] = target concentration 1000, first column
[2] = target concentration 1000, second column

| Sequence | Phage library screen NGS readout, Target Concentration 10 | Phage library screen NGS readout, Target Concentration 30 | Phage library screen NGS readout, Target Concentration 100 | Phage library screen NGS readout, Target Concentration 300 | Phage library screen NGS readout, Target Concentration 1000 [1] | Phage library screen NGS readout, Target Concentration 1000 [2] | Phage library screen NGS readout, BLANK (column 1 of 5) | Phage library screen NGS readout, BLANK (column 2 of 5) | Phage library screen NGS readout, BLANK (column 3 of 5) | Phage library screen NGS readout, BLANK (column 4 of 5) | Phage library screen NGS readout, BLANK (column 5 of 5) |
| --- | --- | --- | --- | --- | --- | --- | --- | --- | --- | --- | --- |
| DPALRDCLDAAIMCTYT | 0 | 1 | 0 | 4 | 5 | 7 | 0 | 0 | 0 | 0 | 0 |
| DPALWDCLYAADACITS (not fully specified; cysteine pairing not given here) | 0 | 1 | 0 | 4 | 8 | 12 | 0 | 2 | 1 | 0 | 0 |
| DPAMEWCWDAAVFCTYS | 1 | 1 | 0 | 6 | 18 | 16 | 2 | 1 | 0 | 1 | 1 |
| DPAMIDCFLAAQVCATY (not fully specified; cysteine pairing not given here) | 0 | 0 | 0 | 1 | 6 | 6 | 0 | 0 | 0 | 0 | 0 |
| DPAMQDCQLAALVCTTY | 0 | 1 | 0 | 1 | 6 | 6 | 0 | 0 | 0 | 0 | 0 |
| DPAQDQCISAAVLCTYT | 0 | 0 | 0 | 22 | 44 | 37 | 0 | 0 | 1 | 0 | 0 |
| DPAQDWCMYAAYECDAH | 0 | 0 | 0 | 2 | 7 | 9 | 0 | 0 | 2 | 1 | 1 |
| DPAQEACWDAAIMCTYR | 0 | 0 | 0 | 29 | 56 | 80 | 0 | 0 | 0 | 0 | 0 |
| DPAQMECIDAAIMCSYT | 0 | 0 | 0 | 3 | 5 | 5 | 0 | 0 | 0 | 0 | 0 |
| DPAQYQCWNAAMSCSYS | 1 | 1 | 3 | 3 | 7 | 4 | 1 | 0 | 0 | 3 | 2 |

Now from value to sequence:

| Phage library screen NGS readout, Target Concentration 10 | Phage library screen NGS readout, Target Concentration 30 | Phage library screen NGS readout, Target Concentration 100 | Phage library screen NGS readout, Target Concentration 300 | Phage library screen NGS readout, Target Concentration 1000 [1] | Phage library screen NGS readout, Target Concentration 1000 [2] | Phage library screen NGS readout, BLANK (column 1 of 5) | Phage library screen NGS readout, BLANK (column 2 of 5) | Phage library screen NGS readout, BLANK (column 3 of 5) | Phage library screen NGS readout, BLANK (column 4 of 5) | Phage library screen NGS readout, BLANK (column 5 of 5) | Sequence |
| --- | --- | --- | --- | --- | --- | --- | --- | --- | --- | --- | --- |
| 2 | 3 | 4 | 47 | 186 | 171 | 2 | 0 | 0 | 3 | 1 | DPALEICWDAAIQCSYV |
| 1 | 1 | 1 | 11 | 96 | 69 | 0 | 0 | 2 | 0 | 0 | DPALSHCTVAAMVCSTY |
| 1 | 1 | 2 | 1 | 4 | 10 | 0 | 1 | 0 | 2 | 0 | DPALVTCTWAAIYCDDF |
| 0 | 0 | 0 | 4 | 14 | 8 | 0 | 2 | 0 | 0 | 0 | DPAMQECMDAAIMCTYA |
| 0 | 0 | 3 | 3 | 26 | 12 | 0 | 0 | 1 | 0 | 0 | DPANFTCRVAADVCSTY |
| 2 | 0 | 2 | 7 | 36 | 20.49 | 0 | 0 | 0 | 0 | 1 | DPAQEECFEAAVFCSYY |
| 1 | 1 | 1 | 5 | 6 | 8 | 3 | 2 | 0 | 1 | 0 | DPAQHECIYAAWDCDML |
| 0 | 0 | 0 | 4 | 12 | 10 | 0 | 0 | 0 | 0 | 0 | DPAQYQCDIAAQVCSTY |
